Data: publication PMC9482650, “Quantitative fragmentomics allow affinity mapping of interactomes” (Nature Communications, 2022)

Legend:
Test in all cases: holdup assay
Set-up in all cases: key: below the threshold = too weak to quantify, mostly under pKd 3.1 to 4
[1] = biological target: T1, ARHGAP21, Q5T5U3
T1 sequence (Q5T5U3 45-169, limits assumed, looked up): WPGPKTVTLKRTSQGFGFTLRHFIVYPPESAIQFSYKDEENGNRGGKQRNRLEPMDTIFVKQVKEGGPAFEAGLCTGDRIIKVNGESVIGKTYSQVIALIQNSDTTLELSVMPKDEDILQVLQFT

[2] = biological target: DLG1_1, Q12959
[3] = biological target: T2, DLG3_2, Q92796
T2 sequence (Q92796 221-321, limits assumed, looked up): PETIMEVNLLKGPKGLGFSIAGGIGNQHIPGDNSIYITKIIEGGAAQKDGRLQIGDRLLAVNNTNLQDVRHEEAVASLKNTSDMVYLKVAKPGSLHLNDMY

[4] = biological target: FRMPD4, Q14CM0
[5] = biological target: T3, GRIP1_4, Q9Y3R0
T3 sequence (Q9Y3R0 467-571, limits assumed, looked up): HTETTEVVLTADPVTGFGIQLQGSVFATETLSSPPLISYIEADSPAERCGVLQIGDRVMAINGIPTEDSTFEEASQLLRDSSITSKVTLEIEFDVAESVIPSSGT

[6] = biological target: T4, GRIP1_5, Q9Y3R0
T4 sequence (Q9Y3R0 568-668, limits assumed, looked up): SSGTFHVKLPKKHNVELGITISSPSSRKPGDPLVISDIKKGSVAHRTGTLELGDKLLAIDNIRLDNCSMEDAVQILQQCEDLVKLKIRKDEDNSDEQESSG

[7] = biological target: GRIP2_5, Q9C0E4
[8] = biological target: T5, HTRA3, P83110
T5 sequence (P83110 354-453, limits assumed, looked up): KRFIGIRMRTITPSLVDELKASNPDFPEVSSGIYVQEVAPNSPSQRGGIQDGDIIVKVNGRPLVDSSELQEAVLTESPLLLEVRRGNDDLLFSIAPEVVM

[9] = biological target: IL16_3, Q14005
[10] = biological target: IL16_4, Q14005
[11] = biological target: Inadl_2, Q8NI35
[12] = biological target: LAP2, Q96RT1
[13] = biological target: T6, LIN7B, Q9HAP6
T6 sequence (Q9HAP6 88-185, limits assumed, looked up): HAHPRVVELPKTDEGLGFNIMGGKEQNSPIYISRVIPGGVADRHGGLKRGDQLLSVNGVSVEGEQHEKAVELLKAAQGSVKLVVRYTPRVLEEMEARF

[14] = biological target: T7, LNX2_2, Q8N448
T7 sequence (Q8N448 334-432, limits assumed, looked up): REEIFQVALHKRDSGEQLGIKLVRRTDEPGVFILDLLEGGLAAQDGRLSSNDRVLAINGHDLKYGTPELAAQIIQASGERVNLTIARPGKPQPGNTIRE

[15] = biological target: T8, LNX2_3, Q8N448
T8 sequence (Q8N448 463-564, limits assumed, looked up): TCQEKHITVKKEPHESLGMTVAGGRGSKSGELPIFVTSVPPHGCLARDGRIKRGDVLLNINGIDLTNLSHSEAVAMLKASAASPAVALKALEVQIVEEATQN

[16] = biological target: MAGI2_2, Q86UL8
[17] = biological target: MAST2, Q6P0Q8
[18] = biological target: T9, MPP2, Q14168
T9 sequence (Q14168 180-250, limits assumed, looked up): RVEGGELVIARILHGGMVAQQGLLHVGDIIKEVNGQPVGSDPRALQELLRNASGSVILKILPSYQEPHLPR

[19] = biological target: T10, NHERF3_1, Q5T2W1
T10 sequence (Q5T2W1 4-100, limits assumed, looked up): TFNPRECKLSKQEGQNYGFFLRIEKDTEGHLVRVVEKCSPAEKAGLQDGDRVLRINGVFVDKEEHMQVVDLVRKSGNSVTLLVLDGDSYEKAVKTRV

[20] = biological target: NOS1, P29475
[21] = biological target: PARD3_3, Q8TEW0
[22] = biological target: T11, RADIL, Q96JH8
T11 sequence (Q96JH8 971-1071, limits assumed, looked up): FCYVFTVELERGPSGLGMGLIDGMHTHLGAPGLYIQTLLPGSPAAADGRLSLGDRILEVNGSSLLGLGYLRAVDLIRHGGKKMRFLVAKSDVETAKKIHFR

[23] = biological target: SNX27, Q96L92
[24] = biological target: T12, TIAM2, Q8IVF5
T12 sequence (Q8IVF5 885-986, limits assumed, looked up): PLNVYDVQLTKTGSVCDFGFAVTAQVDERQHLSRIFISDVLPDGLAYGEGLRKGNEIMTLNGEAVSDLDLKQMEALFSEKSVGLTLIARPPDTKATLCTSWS

[25] = biological target: TJP2_1, Q9UDY2
[26] = plain residues with an end cap or a label only (N-terminal biotin on a linker: ado-ado)
[27] = modified: phospho on T at position -2 from the C-terminal residue

Inadl_2, Q8NI35, sequence (Q8NI35 238-335): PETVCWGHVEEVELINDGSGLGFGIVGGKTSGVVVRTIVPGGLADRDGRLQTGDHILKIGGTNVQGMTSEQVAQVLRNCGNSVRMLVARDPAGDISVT
MAST2, Q6P0Q8, sequence (Q6P0Q8 1099-1202): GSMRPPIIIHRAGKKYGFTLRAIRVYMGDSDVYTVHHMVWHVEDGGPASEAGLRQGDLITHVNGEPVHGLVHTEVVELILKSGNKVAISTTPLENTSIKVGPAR
LAP2, Q96RT1, sequence (Q96RT1 other isoform, or with tags, fused parts or gaps): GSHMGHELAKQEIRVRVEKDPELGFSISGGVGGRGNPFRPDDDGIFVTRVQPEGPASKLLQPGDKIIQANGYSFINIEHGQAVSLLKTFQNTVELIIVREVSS
MAGI2_2, Q86UL8, sequence (Q86UL8 410-522): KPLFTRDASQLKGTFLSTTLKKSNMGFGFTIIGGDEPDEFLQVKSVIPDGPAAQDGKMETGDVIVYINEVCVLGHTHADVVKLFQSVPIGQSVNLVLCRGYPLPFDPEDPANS
GRIP2_5, Q9C0E4, sequence (Q9C0E4 544-642): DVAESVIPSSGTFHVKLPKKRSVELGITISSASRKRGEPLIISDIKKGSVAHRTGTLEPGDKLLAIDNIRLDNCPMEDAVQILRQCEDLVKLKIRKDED
IL16_4, Q14005, sequence (Q14005 1229-1329): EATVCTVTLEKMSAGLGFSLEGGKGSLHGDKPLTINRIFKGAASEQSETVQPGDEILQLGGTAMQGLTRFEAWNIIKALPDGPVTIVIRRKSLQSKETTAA
TJP2_1, Q9UDY2, sequence (Q9UDY2 24-128): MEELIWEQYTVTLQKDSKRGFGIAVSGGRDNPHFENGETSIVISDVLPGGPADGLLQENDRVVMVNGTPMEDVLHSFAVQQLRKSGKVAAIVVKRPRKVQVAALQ
NOS1, P29475, sequence (P29475 9-101): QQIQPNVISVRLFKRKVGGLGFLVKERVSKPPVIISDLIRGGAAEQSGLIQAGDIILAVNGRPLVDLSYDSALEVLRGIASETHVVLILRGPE
IL16_3, Q14005, sequence (Q14005 1107-1207): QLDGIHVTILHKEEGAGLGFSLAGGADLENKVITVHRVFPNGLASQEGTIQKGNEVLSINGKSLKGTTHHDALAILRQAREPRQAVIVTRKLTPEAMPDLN
PARD3_3, Q8TEW0, sequence (Q8TEW0 582-685): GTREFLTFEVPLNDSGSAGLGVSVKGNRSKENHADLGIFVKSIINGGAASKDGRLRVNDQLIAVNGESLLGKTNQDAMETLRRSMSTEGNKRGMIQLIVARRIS
FRMPD4, Q14CM0, sequence (Q14CM0 67-160): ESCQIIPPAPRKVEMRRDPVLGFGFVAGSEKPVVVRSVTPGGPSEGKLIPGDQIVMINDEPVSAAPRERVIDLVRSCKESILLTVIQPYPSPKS

B1: LPXN, O60711 (peptide)
chain: QPCFNKLFPL
pKd [1, 26]: 3.91
pKd [2, 26]: below the threshold
pKd [3, 26]: below the threshold
pKd [4, 26]: 4.64
pKd [5, 26]: below the threshold
pKd [6, 26]: below the threshold
pKd [7, 26]: below the threshold
pKd [8, 26]: below the threshold
pKd [9, 26]: below the threshold
pKd [10, 26]: below the threshold
pKd [11, 26]: below the threshold
pKd [12, 26]: below the threshold
pKd [13, 26]: below the threshold
pKd [14, 26]: below the threshold
pKd [15, 26]: below the threshold
pKd [16, 26]: below the threshold
pKd [17, 26]: 4.75
pKd [18, 26]: below the threshold
pKd [19, 26]: 4.01
pKd [20, 26]: 3.5
pKd [21, 26]: below the threshold
pKd [22, 26]: below the threshold
pKd [23, 26]: 3.75
pKd [24, 26]: below the threshold
pKd [25, 26]: below the threshold

B2: CCDC134, Q9H6E4 (peptide)
chain: PRISRSQSEL
pKd [1, 26]: below the threshold
pKd [2, 26]: below the threshold
pKd [3, 26]: 3.98
pKd [4, 26]: below the threshold
pKd [5, 26]: below the threshold
pKd [6, 26]: below the threshold
pKd [7, 26]: below the threshold
pKd [8, 26]: below the threshold
pKd [9, 26]: below the threshold
pKd [10, 26]: 3.8
pKd [11, 26]: below the threshold
pKd [12, 26]: below the threshold
pKd [13, 26]: 3.62
pKd [14, 26]: below the threshold
pKd [15, 26]: below the threshold
pKd [16, 26]: 3.85
pKd [17, 26]: 5.76
pKd [18, 26]: below the threshold
pKd [19, 26]: 4.42
pKd [20, 26]: below the threshold
pKd [21, 26]: below the threshold
pKd [22, 26]: below the threshold
pKd [23, 26]: below the threshold
pKd [24, 26]: 3.86
pKd [25, 26]: below the threshold

B3: NLGN2, Q8NFZ4 (peptide)
chain: LPHPHSTTRV
pKd [1, 26]: 3.71
pKd [2, 26]: 3.78
pKd [3, 26]: 3.96
pKd [4, 26]: below the threshold
pKd [5, 26]: below the threshold
pKd [6, 26]: below the threshold
pKd [7, 26]: below the threshold
pKd [8, 26]: below the threshold
pKd [9, 26]: below the threshold
pKd [10, 26]: 3.7
pKd [11, 26]: below the threshold
pKd [12, 26]: below the threshold
pKd [13, 26]: 3.58
pKd [14, 26]: 3.51
pKd [15, 26]: below the threshold
pKd [16, 26]: 4.93
pKd [17, 26]: 5.19
pKd [18, 26]: below the threshold
pKd [19, 26]: 3.9
pKd [20, 26]: 3.63
pKd [21, 26]: below the threshold
pKd [22, 26]: 3.87
pKd [23, 26]: 5.41
pKd [24, 26]: below the threshold
pKd [25, 26]: 3.97

B4: HPV18-E6_-2P, P06463 (peptide)
chain: RLQRRRETQV
pKd [1, 27]: 4.03
pKd [2, 27]: below the threshold
pKd [3, 27]: below the threshold
pKd [4, 27]: below the threshold
pKd [5, 27]: below the threshold
pKd [6, 27]: below the threshold
pKd [7, 27]: below the threshold
pKd [8, 27]: below the threshold
pKd [9, 27]: below the threshold
pKd [10, 27]: below the threshold
pKd [11, 27]: below the threshold
pKd [12, 27]: below the threshold
pKd [13, 27]: below the threshold
pKd [14, 27]: below the threshold
pKd [15, 27]: below the threshold
pKd [16, 27]: below the threshold
pKd [17, 27]: below the threshold
pKd [18, 27]: below the threshold
pKd [19, 27]: below the threshold
pKd [20, 27]: 3.75
pKd [21, 27]: below the threshold
pKd [22, 27]: below the threshold
pKd [23, 27]: 3.61
pKd [24, 27]: below the threshold
pKd [25, 27]: below the threshold

B5: ACTN2, P35609 (peptide)
chain: SSALYGESDL
pKd [1, 26]: below the threshold
pKd [2, 26]: below the threshold
pKd [3, 26]: 4.18
pKd [4, 26]: below the threshold
pKd [5, 26]: below the threshold
pKd [6, 26]: below the threshold
pKd [7, 26]: below the threshold
pKd [8, 26]: below the threshold
pKd [9, 26]: below the threshold
pKd [10, 26]: below the threshold
pKd [11, 26]: below the threshold
pKd [12, 26]: 3.96
pKd [13, 26]: 3.76
pKd [14, 26]: below the threshold
pKd [15, 26]: below the threshold
pKd [16, 26]: below the threshold
pKd [17, 26]: 5.52
pKd [18, 26]: below the threshold
pKd [19, 26]: 3.57
pKd [20, 26]: below the threshold
pKd [21, 26]: below the threshold
pKd [22, 26]: below the threshold
pKd [23, 26]: 4.76
pKd [24, 26]: 4.18
pKd [25, 26]: below the threshold

B6: TRPC5, Q9UL62 (peptide)
chain: GQEEQVTTRL
pKd [1, 26]: 4.07
pKd [2, 26]: below the threshold
pKd [3, 26]: 3.97
pKd [4, 26]: 4.29
pKd [5, 26]: below the threshold
pKd [6, 26]: below the threshold
pKd [7, 26]: below the threshold
pKd [8, 26]: below the threshold
pKd [9, 26]: below the threshold
pKd [10, 26]: below the threshold
pKd [11, 26]: below the threshold
pKd [12, 26]: below the threshold
pKd [13, 26]: below the threshold
pKd [14, 26]: below the threshold
pKd [15, 26]: below the threshold
pKd [16, 26]: below the threshold
pKd [17, 26]: 5.62
pKd [18, 26]: below the threshold
pKd [19, 26]: 5.17
pKd [20, 26]: 3.57
pKd [21, 26]: 3.5
pKd [22, 26]: below the threshold
pKd [23, 26]: 5.47
pKd [24, 26]: 3.65
pKd [25, 26]: below the threshold
